What all share (assay): Crosslinking/co-immunoprecipitation/mass spectrometry (TMT quantitative proteomics) to identify irisin receptors
Format in all cases: binding

The target in assay [1] is T1, MLO-Y4 cell surface proteins (Mus musculus, UniProt P62960).
T1 construct: endogenous in cells; host or cells: MLO-Y4
The settings on record: co-precipitated protein Ybx1 (YBOX1_MOUSE). An outline of the steps: (§1)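 Relative protein abundance came from 6-plex TMT MS3 quantitation on an Orbitrap Fusion Lumos, after in-gel trypsin digestion of Coomassie-stained SDS-PAGE lanes. Input was a Ni-NTA pulldown (250 mM imidazole elution) of lysates from murine MLO-Y4 cells. These cells were treated on ice with His-tagged irisin or adipsin (10 nM, 20 min) in serum-free medium, then crosslinked with 1.5 mM DTSSP for 30 min.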

The target of assay [2] is T2, MLO-Y4 cell surface proteins (Mus musculus, UniProt P56567).
T2 construct: endogenous in cells; host or cells: MLO-Y4
T2 sequence (P56567 1-97): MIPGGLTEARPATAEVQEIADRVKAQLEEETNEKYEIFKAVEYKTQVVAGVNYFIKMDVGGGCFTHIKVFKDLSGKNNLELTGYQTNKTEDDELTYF
Conditions: co-precipitated protein Csta (CYTA_MOUSE). The procedure, abridged:
as §1

Assay [3] deals with T3, MLO-Y4 cell surface proteins (Mus musculus, UniProt P04117).
T3 construct: endogenous in cells; host or cells: MLO-Y4
T3 sequence (P04117 1-132): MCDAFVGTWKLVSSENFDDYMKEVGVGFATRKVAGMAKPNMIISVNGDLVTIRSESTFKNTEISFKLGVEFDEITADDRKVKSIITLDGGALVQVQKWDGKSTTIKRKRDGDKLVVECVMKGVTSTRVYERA
Conditions: co-precipitated protein Fabp4 (FABP4_MOUSE). The procedure, abridged: as §1

In assay [4] the target is T4, MLO-Y4 cell surface proteins (Mus musculus, UniProt Q9DCW4).
T4 construct: endogenous in cells; host or cells: MLO-Y4
T4 sequence (Q9DCW4 1-255): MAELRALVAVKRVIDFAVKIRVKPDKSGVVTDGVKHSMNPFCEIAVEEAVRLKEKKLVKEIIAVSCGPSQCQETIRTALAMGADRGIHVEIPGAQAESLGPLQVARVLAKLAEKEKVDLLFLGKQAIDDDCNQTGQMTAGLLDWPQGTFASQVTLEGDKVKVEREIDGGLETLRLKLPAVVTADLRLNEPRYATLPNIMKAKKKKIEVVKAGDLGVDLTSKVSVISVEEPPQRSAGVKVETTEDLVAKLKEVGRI
Conditions: co-precipitated protein Etfb (ETFB_MOUSE). The procedure, abridged: as §1

In assay [5] the target is T5, MLO-Y4 cell surface proteins (Mus musculus, UniProt P16460).
T5 construct: endogenous in cells; host or cells: MLO-Y4
T5 sequence (P16460 1-412): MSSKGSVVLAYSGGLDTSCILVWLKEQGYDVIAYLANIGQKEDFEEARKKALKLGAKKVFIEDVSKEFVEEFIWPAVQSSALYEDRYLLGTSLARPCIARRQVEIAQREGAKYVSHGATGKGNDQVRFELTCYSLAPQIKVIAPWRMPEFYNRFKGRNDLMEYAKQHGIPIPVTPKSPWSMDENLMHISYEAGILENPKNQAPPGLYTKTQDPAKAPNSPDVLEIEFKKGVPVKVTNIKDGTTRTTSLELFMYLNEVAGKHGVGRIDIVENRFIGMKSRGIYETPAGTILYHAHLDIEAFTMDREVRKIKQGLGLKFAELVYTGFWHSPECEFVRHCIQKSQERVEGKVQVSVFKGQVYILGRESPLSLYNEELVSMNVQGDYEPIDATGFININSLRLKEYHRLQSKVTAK
Conditions: co-precipitated protein Ass1 (ASSY_MOUSE). The procedure, abridged:
as §1

T1 sequence (P62960 whole entry): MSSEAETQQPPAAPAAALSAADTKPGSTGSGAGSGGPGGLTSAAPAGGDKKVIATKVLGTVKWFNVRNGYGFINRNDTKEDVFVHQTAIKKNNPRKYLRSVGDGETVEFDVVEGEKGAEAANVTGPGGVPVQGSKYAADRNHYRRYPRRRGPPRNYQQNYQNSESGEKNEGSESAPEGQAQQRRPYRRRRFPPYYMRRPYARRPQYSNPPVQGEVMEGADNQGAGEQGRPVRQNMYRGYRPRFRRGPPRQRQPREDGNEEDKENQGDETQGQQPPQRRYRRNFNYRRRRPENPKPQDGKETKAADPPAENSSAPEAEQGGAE

Turning to adipsin, the TMT signal-to-noise ratio is on record as 219.172 in assay [1]; 160.416 in assay [2]; 746.54 in assay [3]; 730.275 in assay [4]; 285.885 in assay [5].

(Values after patent publication US20210063414A1, “METHODS FOR PREVENTING AND/OR TREATING BONE LOSS CONDITIONS BY MODULATING IRISIN” (Dana-Farber Cancer Institute, Inc., priority 2018, published 2021).)
